The text below walks through data of publication PMC11775523.

The data set relates to Exo1 (exonuclease). Briefly: ITC. Conditions: ITC: 67 mM glycine-KOH, 6.7 mM MgCl2, 1 mM TCEP, 37 C (Methods: 100 uM aptamer into 10 uM Exo1; Results text: 10 uM into 1 uM). Cells: Dulbecco's PBS, 5 mM ….

A word on the Kd: it is the concentration at which binding is half-saturated. The low end stands for a tighter complex, the high end for a looser complex. “NATCTAACTGCNGCGCCGCCGGGAAAATACTGTACGGTTAGAT [GS01 (5' GalN-Sgc8)]” came in with a dissociation constant (Kd) (5'-terminal GalNAc-modified base (N1, printed X), position 12 is also printed X, but the text describes only 5' modification, so likely a misprint for T) of 662 µM.

On to “ATCTAACTGCTGCGCCGCCGGGAAAATACTGTACGGTTAGA [Sgc8 (S01)]”, for which the Kd came to 0.001 µM.
